Experimental data as given in paper PMC12676778, “Long-tailed class I myosins rely on tail-mediated phosphoinositide recognition for specific membrane recruitment” (Cell Communication and Signaling : CCS, 2025).
“Also recorded” adds a separate entry of the source.

Tests used:
[1] = molecular target: PI (unphosphorylated phosphatidylinositol) lipid vesicles; assay: Fluorescence-based cosedimentation of myosin-1 tails with lipid vesicles containing PI; conditions: 500 nM tail, accessible phospholipid, read-out: KD, tail binding to PI
Description: (§1) Phospholipid binding assays were performed using commercially available lipid vesicles (PolyPIPosomes™, 200 nm diameter; Echelon Biosciences) composed of 95% PE + PC and 5% of the phosphoinositide of interest. Accessible phospholipid concentration was calculated as half of the total phospholipid content. Myosin-1 tail (500 nM) in co-sedimentation buffer (10 mM Tris, pH 7.5, 100 mM NaCl, 1 mM EGTA) was incubated with increasing concentrations of PolyPIPosomes™ (accessible PIP range: 10 nM to 10 mM) at room temperature for 30 min, followed by centrifugation at 25,000 g to separate bound and unbound fractions. Bound myosin-1 tail was quantified either by measuring fluorescence intensity of the supernatant (Jasco FP-6500 fluorimeter, excitation 514 nm) or by western blot of pellet and supernatant fractions using anti-GST antibody as indicated in the experiments. […] Microtubule binding assays employed 100 mM PIPES (pH 6.8), 2 mM MgCl2, 1 mM EGTA, 20 µM paclitaxel, and 1 mM GTP. […] Fluorescence intensities of pellet and supernatant fractions were quantified as described above. […]
(§2) Fig. 1 Myosin-1 tail binding to phosphoinositides. a Representative fluorescence spectra of supernatants from co-sedimentation assays with YFP-tagged myosin-1D tail and increasing concentrations of lipid vesicles containing PI(3,5)P₂. […]

[2] = molecular target: PC, PS lipid vesicles; assay: Cosedimentation of myosin-1 tails with lipid vesicles devoid of phosphoinositides; conditions: 500 nM tail; vesicles without phosphoinositide; read-out: KD, tail binding to PC, PS
Description: as §1, §2

[3] = molecular target: PI(3)P lipid vesicles (PolyPIPosomes); assay: Cosedimentation of myosin-1 tails with PI(3)P vesicles; conditions: 500 nM tail; vesicles with 5% phosphoinositide; read-out: KD, tail binding to PI(3)P
Description: as §1, §2

[4] = molecular target: PI(4)P lipid vesicles (PolyPIPosomes); assay: Cosedimentation of myosin-1 tails with PI(4)P vesicles; conditions: 500 nM tail; vesicles with 5% phosphoinositide; read-out: KD, tail binding to PI(4)P
Description: as §1, §2

[5] = molecular target: PI(5)P lipid vesicles (PolyPIPosomes); assay: Cosedimentation of myosin-1 tails with PI(5)P vesicles; conditions: 500 nM tail; vesicles with 5% phosphoinositide; read-out: KD, tail binding to PI(5)P
Description: as §1, §2

[6] = molecular target: PI(3,5)P2 lipid vesicles (PolyPIPosomes); assay: Cosedimentation of myosin-1 tails with PI(3,5)P2 vesicles (fluorescence or immunoblot detection); conditions: 500 nM tail; vesicles with 5% phosphoinositide; read-out: KD, tail binding to PI(3,5)P2
Description: Phospholipid binding assays were performed using commercially available lipid vesicles (PolyPIPosomes™, 200 nm diameter; Echelon Biosciences) composed of 95% PE + PC and 5% of the phosphoinositide of interest. Accessible phospholipid concentration was calculated as half of the total phospholipid content. Myosin-1 tail (500 nM) in co-sedimentation buffer (10 mM Tris, pH 7.5, 100 mM NaCl, 1 mM EGTA) was incubated with increasing concentrations of PolyPIPosomes™ (accessible PIP range: 10 nM to 10 mM) at room temperature for 30 min, followed by centrifugation at 25,000 g to separate bound and unbound fractions. Bound myosin-1 tail was quantified either by measuring fluorescence intensity of the supernatant (Jasco FP-6500 fluorimeter, excitation 514 nm) or by western blot of pellet and supernatant fractions using anti-GST antibody as indicated in the experiments. […] Fluorescence intensities of pellet and supernatant fractions were quantified as described above. […]
as §2
Supplementary Fig. S2. Lipid dot blot assays and comparisons between fluorescence-based detection and immunoblot detection of myosin-1-PI(3,5)P2 interactions. […]

[7] = molecular target: PI(4,5)P2 lipid vesicles (PolyPIPosomes); assay: Cosedimentation of myosin-1 tails with PI(4,5)P2 vesicles; conditions: 500 nM tail; vesicles with 5% phosphoinositide; read-out: KD, tail binding to PI(4,5)P2
Description: as §1, §2

[8] = molecular target: PI(3,4,5)P3 lipid vesicles (PolyPIPosomes); assay: Cosedimentation of myosin-1 tails with PI(3,4,5)P3 vesicles; conditions: 500 nM tail; vesicles with 5% phosphoinositide; read-out: KD, tail binding to PI(3,4,5)P3
Description: as §1, §2

[9] = tested on: PI(3,4,5)P3 lipid vesicles; assay: Competitive binding of myosin-1 tails to PI(3,4,5)P3 vesicles (western blot of supernatant and pellet)
Description: Phospholipid binding assays were performed using commercially available lipid vesicles (PolyPIPosomes™, 200 nm diameter; Echelon Biosciences) composed of 95% PE + PC and 5% of the phosphoinositide of interest. Accessible phospholipid concentration was calculated as half of the total phospholipid content. Myosin-1 tail (500 nM) in co-sedimentation buffer (10 mM Tris, pH 7.5, 100 mM NaCl, 1 mM EGTA) was incubated with increasing concentrations of PolyPIPosomes™ (accessible PIP range: 10 nM to 10 mM) at room temperature for 30 min, followed by centrifugation at 25,000 g to separate bound and unbound fractions. Bound myosin-1 tail was quantified either by measuring fluorescence intensity of the supernatant (Jasco FP-6500 fluorimeter, excitation 514 nm) or by western blot of pellet and supernatant fractions using anti-GST antibody as indicated in the experiments. […] Microtubule binding assays employed 100 mM PIPES (pH 6.8), 2 mM MgCl2, 1 mM EGTA, 20 µM paclitaxel, and 1 mM GTP. […] Fluorescence intensities of pellet and supernatant fractions were quantified as described above.
To gain deeper insight into the binding specificity of the myosin tails, we conducted competition experiments in which two tail constructs were simultaneously present in the PIP-binding assay, allowing us to assess their ability to compete for binding to the same lipid species. We performed these experiments using PI(3,4,5)P₃ (PIP₃) as an exemplary lipid, first in the absence and then in the presence of a second tail isoform. Two tail pairs were tested: those of myosin-1B and myosin-1D, and those of myosin-1C and myosin-1D (Figs. 3a, c). […] These findings establish myosin-1D as the dominant binder of PIP₃, capable of outcompeting myosin-1B and myosin-1C for membrane association.
Fig. 3 Competitive binding of myosin-1 tails to PI(3,4,5)P₃. a, c Western blots of supernatant and pellet fractions from lipid vesicles containing PI(3,4,5)P₃ following incubation with 2 µM myosin-1B tail (~ 70 kDa) (a) or myosin-1C tail (~ 70 kDa) (c) in competition with myosin-1D tail (~ 100 kDa). The total accessible PI(3,4,5)P₃ concentration was maintained at 2 µM. b, d Dashed boxes indicate the fraction of myosin-1 tails bound to lipid vesicles in the absence of the other myosin isoform. Orange bars denote the fraction of bound myosin in the presence of the competing myosin TEXT PRINTED IN THE PICTURE: (b) myosin-1D: % myosin bound to PI(3,4,5)P3: 90%; % myosin bound to PI(3,4,5)P3: 86% | (b) myosin-1B: % myosin bound to PI(3,4,5)P3: 71%; % myosin bound to PI(3,4,5)P3: 32% | (d) myosin-1D: % myosin bound to PI(3,4,5)P3: 94%; % myosin bound to PI(3,4,5)P3: 85% | (d) myosin-1C: % myosin bound to PI(3,4,5)P3: 32%; % myosin bound to PI(3,4,5)P3: 9%

[10] = tested on: isolated nuclei from Dictyostelium cells; assay: Binding of YFP-tagged myosin tail constructs to isolated nuclei, confocal microscopy; parameters: species or system Dictyostelium discoideum; conditions: 1 µM tail construct, 30 min
[11] = tested on: microtubules and F-actin; assay: TIRF microscopy of microtubule/F-actin cross-linking by myosin-1 tails; format: biochemical; conditions: 1 µM tail construct
[12] = molecular target: microtubules; parameters: method as in Rump et al., 2010; conditions: ref Rump et al., 2010; read-out: KD, tail binding to microtubules; cited from earlier work
[13] = tested on: microtubules; parameters: method as in PMID 21712373; conditions: read-out: Inhibition of the cold-induced depolymerization of microtubules IC50; cited from earlier work
[14] = molecular target: PI(3,4)P2 lipid vesicles (PolyPIPosomes); assay: Cosedimentation of myosin-1 tails with PI(3,4)P2 vesicles; conditions: 500 nM tail; vesicles with 5% phosphoinositide; read-out: KD, tail binding to PI(3,4)P2
Description: as §1, §2

[15] = in presence of competing myosin-1D tail, 2 µM each, PI(3,4,5)P3 2 µM
[16] = single tail 2 µM, absence of other isoform, accessible PI(3,4,5)P3 2 µM

B1: Myosin-1C-tail: Recombinant GST-/YFP-tagged tail construct of Dictyostelium discoideum myosin-1C (protein)
chain: RYWHDMASRIKNAYRNYKAFQFECSNRIKNAFRNYKLYRQRCAQTIQGYFRAWKQASPFFDLRMQNEQLFQGRKERNRFSMISVRKYFGDYLDVRSQSYFLDAMAEGRNEDVIFSSKSQVMVHPILSANKLSPRFLIVTKQAIYLIKLKQKKNLATYLLDRRVPLAEVTSFSLSSLADNLLVIHTSTQFDVAVTTEFKTELVALINKQKGTTLAVNFGQSIQYFKKKGSNNTVTFLKDEMHKEIFLKKNQFHIASGLPASTTVAKVRKNPSQVSTPSKPIAKPVAKPMVAKPSGGSVIMKKPAPAAPPSGPPVMKKPAPTAPGGAPMMKKPAPAPGGAPMMKKPAPVPGGPAPGGSAIMKPAGGVSKPLPSPTGAPMMKKPAPTAPGGPAPAGAPTPMMKKPAGQPMMKPIAKPQPTPMKKPAAPPPQQYIALYEYDAMQPDELTFKENDVINLIKKVDADWWQGELVRTKQIGMLPSNYVQQI
modifications: left off: GST, end not stated, state not stated | YFP, end not stated, kept
notes: Recombinant GST-/YFP-tagged tail construct of Dictyostelium discoideum myosin-1C
Kd [1]: 5400 ± 800 nM | Kd [2]: 31500 ± 2700 nM | Kd [3]: 4000 ± 300 nM | Kd [4]: 400 ± 100 nM | Kd [5]: 500 ± 100 nM | Kd [6]: 600 ± 100 nM | Kd [7]: 1100 ± 200 nM | Kd [8]: 2500 ± 300 nM | % myosin bound to PI(3,4,5)P3 [9, 15]: 9% | % myosin bound to PI(3,4,5)P3 [9, 16]: ~32% | association of YFP-tagged tail construct with isolated nuclei [10]: do not bind to nuclei; also recorded: did not associate with the nuclei | cross-linking of microtubules and actin filaments [11]: cross-linking activity | Kd [12]: 80 ± 50 nM | IC50 [13]: ~2 nM

B2: Myosin-1B-tail: Recombinant GST-/YFP-tagged tail construct of Dictyostelium discoideum myosin-1B (amino acids 717–1111) (protein)
chain: QRAQIAHMFKDKKERQRNSIDRKFTSDYIDFENQFGLQEAMQNAHKKERVVFADTVIKIDRRAKQKNYEMVLTDQALYFVEKSIKKKVLVHTLIRRVGLREIKGVSISTLSDNVIVFHLPEHDQVIENDKKTEIIIVLVEYFKAIGGGSLNVQFSDRINYTLKKGEQKEISFQKSEQCPTLVVKKGGKGLIGTIASGLPSSTDSTPKNYNPNSMSQASSRPAPQQSAGRGRGMPQGAGQPQPQQPQQQQRPMPQPQQGGGARPMPQPQQGGGARPMGAPQQGGAPQQGAGRQLPQPTQQGGAPGGRGAPMGRGAPGGGPAGAGGRPLPTVAKPAPQPSRPTAKALYDYDASSTDELSFKEGDIIFIVQKDNGGWTQGELKSGQKGWAPTNYLQYN
modifications: left off: GST, N-terminal, state not stated | YFP, C-terminal, kept
Kd [1]: 38200 ± 4000 nM | Kd [2]: > 100000 nM | Kd [3]: 8300 ± 1000 nM | Kd [4]: 2300 ± 400 nM | Kd [5]: 7700 ± 600 nM | Kd [14]: 2200 ± 400 nM | Kd [8]: 1100 ± 200 nM | % myosin bound to PI(3,4,5)P3 [9, 15]: 32% | % myosin bound to PI(3,4,5)P3 [9, 16]: ~71% | association of YFP-tagged tail construct with isolated nuclei [10]: do not bind to nuclei; also recorded: did not associate with the nuclei | cross-linking of microtubules and actin filaments [11]: not observed
